Target: Mannan-binding lectin (MBL), P11226
Sequence (P11226 21-248): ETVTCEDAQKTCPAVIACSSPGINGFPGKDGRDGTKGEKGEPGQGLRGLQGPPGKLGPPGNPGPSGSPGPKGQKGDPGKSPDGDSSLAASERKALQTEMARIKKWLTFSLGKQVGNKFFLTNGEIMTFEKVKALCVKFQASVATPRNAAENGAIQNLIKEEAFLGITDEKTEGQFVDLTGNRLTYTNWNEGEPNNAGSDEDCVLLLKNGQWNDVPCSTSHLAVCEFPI

B1: MASP-2 (MBL-associated serine protease 2), wild type, recombinant (protein)
chain: TPLGPKWPEPVFGRLASPGFPGEYANDQERRWTLTAPPGYRLRLYFTHFDLELSHLCEYDFVKLSSGAKVLATLCGQESTDTERAPGKDTFYSLGSSLDITFRSDYSNEKPFTGFEAFYAAEDIDECQVAPGEAPTCDHHCHNHLGGFYCSCRAGYVLHRNKRTCSALCSGQVFTQRSGELSSPEYPRPYPKLSSCTYSISLEEGFSVILDFVESFDVETHPETLCPYDFLKIQTDREEHGPFCGKTLPHRIETKSNTVTITFVTDESGDHTGWKIHYTSTAQPCPYPMAPPNGHVSPVQAKYILKDSFSIFCETGYELLQGHLPLKSFTAVCQKDGSWDRPMPACSIVDCGPPDDLPSGRVEYITGPGVTTYKAVIQYSCEETFYTMKVNDGKYVCEADGFWTSSKGEKSLPVCEPVCGLSARTTGGRIYGGQKAKPGDFPWQVLILGGTTAAGALLYDNWVLTAAHAVYEQKHDASALDIRMGTLKRLSPHYTQAWSEAVFIHEGYTHDAGFDNDIALIKLNNKVVINSNITPICLPRKEAESFMRTDDIGTASGWGLTQRGFLARNLMYVDIPIVDHQKCTAAYEKPPYPRGSVTANMLCAGLESGGKDSCRGDSGGALVFLDSETERWFVGGIVSWGSMNCGEAGQYGVYTKVINYIPWIENIISDF
With B1 as the protein, how does the “MBL pathway activity (C4b deposition in mannan coated wells)” value read?
Its value is “Restoration of the MBL pathway was also achieved by adding recombinant MASP-2 to the patient serum”.

Source: patent publication US20060275764
